In patent publication US20110201552A1 (Janssen / Centocor, published 2011):
One block for each binder: values may come before it.

Experiments:
[1] = biological target: recombinant enovin (6xHis-tagged mature human Enovin expressed from plasmid hEVNmat/pRSETB in E. coli BL21(DE3), refolded) (human); assay: SPR (BIAcore 3000, 25 C), enovin immobilized, soluble GFRα3-Fc in flow at three concentrations
[2] = biological target: recombinant enovin (6xHis-tagged mature human Enovin expressed from plasmid hEVNmat/pRSETB in E. coli BL21(DE3), refolded) (human); assay: SPR (BIAcore 3000, 25 C), enovin immobilized, soluble GFRα3-Fc in flow; KD calculated as kd/ka
[3] = biological target: T1, soluble GFRα-1 IgG1-Fc fusion protein (GFRα-1 amino acids 27 to 427 fused to human IgG1-Fc, from CHO cells) (human, UniProt P56159 27-427); assay: SPR (BIAcore 3000), enovin immobilized, soluble GFRα-Fc in flow
T1 construct: range 27-427; The 17 amino acid CD33 signal peptide of the vector is left out; also called GFRα1-Fc; not shown: 243 amino acid COOH-terminal human IgG1-Fc fusion domain of vector Signal pIg plus (R&D Systems); Its exact limits and a
T1 sequence (looked up): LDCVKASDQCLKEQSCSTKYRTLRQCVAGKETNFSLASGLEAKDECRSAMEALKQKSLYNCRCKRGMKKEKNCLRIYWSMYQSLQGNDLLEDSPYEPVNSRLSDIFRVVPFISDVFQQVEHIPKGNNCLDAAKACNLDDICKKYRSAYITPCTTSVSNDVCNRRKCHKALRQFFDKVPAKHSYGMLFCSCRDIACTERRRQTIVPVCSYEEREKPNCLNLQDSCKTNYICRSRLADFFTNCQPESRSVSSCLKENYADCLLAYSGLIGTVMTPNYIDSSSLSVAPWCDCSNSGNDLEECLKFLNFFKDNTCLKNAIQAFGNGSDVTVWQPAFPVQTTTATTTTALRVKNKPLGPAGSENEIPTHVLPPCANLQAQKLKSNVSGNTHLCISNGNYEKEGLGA
Protocol: (§1) Surface plasmon resonance (SPR) experiments were performed at 25° C. using a BIAcore 3000 instrument. Analyses were performed with enovin and NGF as immobilized ligands. The carboxylated matrix of a Fl sensor chip was first activated with a 1:1 mixture of 400 mM N-ethyl-N-(dimethylaminopropyl)-carbodiimide and 100 mM N-hydroxy-succinimide for 10 min. Than, recombinant enovin and NGF were applied onto the activated surface in […] acetate buffer, pH 4.5 at a flow rate of 5 μl/min. Unoccupied reactive groups were inactivated with 1 M ethanolamine hydrochloride. For binding experiments, soluble GFRα1-3-Fc were superfused at concentrations of 10-100 nM in HEPES buffered saline (150 mM NaCl, 3.5 mM EDTA, 0.05% P-20, 10 mM HEPES, pH 7.4) at a flow rate of 10 μl/min. The association was monitored for 3 min and dissociation for 1 min, followed by regeneration with 5 mM NaOH. Dissociation was initiated by superfusion with HEPES buffered saline. A BIAcore evaluation software, 3.0 was used to calculate the association rate (kₐ), dissociation rate (kd) and the equilibrium dissociation constants (KD calculated as kd/Kₐ).

[4] = biological target: T2, soluble GFRα-2 IgG1-Fc fusion protein (GFRα-2 amino acids 20 to 431 fused to human IgG1-Fc, from CHO cells) (human, UniProt O00451 20-431); assay: as above
T2 construct: range 20-431; The 17 amino acid CD33 signal peptide of the vector is left out; also called GFRα2-Fc; not shown: 243 amino acid COOH-terminal human IgG1-Fc fusion domain of vector Signal pIg plus (R&D Systems); Its exact limits and a
T2 sequence (looked up): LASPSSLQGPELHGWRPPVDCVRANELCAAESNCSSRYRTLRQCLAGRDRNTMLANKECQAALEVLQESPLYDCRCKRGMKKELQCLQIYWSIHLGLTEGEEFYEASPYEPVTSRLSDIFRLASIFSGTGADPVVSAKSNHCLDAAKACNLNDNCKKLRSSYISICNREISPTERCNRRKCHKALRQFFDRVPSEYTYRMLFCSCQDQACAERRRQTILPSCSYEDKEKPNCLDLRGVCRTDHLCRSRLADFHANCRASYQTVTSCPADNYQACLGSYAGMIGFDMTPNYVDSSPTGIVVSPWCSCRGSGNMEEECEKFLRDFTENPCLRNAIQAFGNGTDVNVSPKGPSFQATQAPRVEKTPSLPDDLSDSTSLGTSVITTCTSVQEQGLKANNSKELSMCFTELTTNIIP
Protocol: as §1

koff [1]: 0.000508 s⁻¹
kon [1]: 165000 M⁻¹ s⁻¹
Kd [2]: 3.1 nM
B1: soluble GFRα-3 IgG1-Fc fusion protein (GFRα-3 amino acids 28 to 371 fused to human IgG1-Fc, from CHO cells) (Fc fusion, UniProt O60609 28-371, looked up, not shown: a dimerising Fc or GST)
chain: LAAGDPLPTESRLMNSCLQARRKCQADPTCSAAYHHLDSCTSSISTPLPSEEPSVPADCLEAAQQLRNSSLIGCMCHRRMKNQVACLDIYWTVHRARSLGNYELDVSPYEDTVTSKPWKMNLSKLNMLKPDSDLCLKFAMLCTLNDKCDRLRKAYGEACSGPHCQRHVCLRQLLTFFEKAAEPHAQGLLLCPCAPNDRGCGERRRNTIAPNCALPPVAPNCLELRRLCFSDPLCRSRLVDFQTHCHPMDILGTCATEQSRCLRAYLGLIGTAMTPNFVSNVNTSVALSCTCRGSGNLQEECEMLEGFFSHNPCLTEAIAAKMRFHSQLFSQDWPHPTFAVMAHQ

binding result [3]: no binding (tested: 10-100 nM)
binding result [4]: no binding (tested: 10-100 nM)
B2: recombinant enovin (6xHis-tagged mature human Enovin expressed from plasmid hEVNmat/pRSETB in E. coli BL21(DE3), refolded) (ligand)
chain: MRGSHHHHHHGMASMTGGQQMGRDLYDDDDKDPAGGPGSRARAAGARGCRLRSQLVPVRALGLGHRSDELVRFRFCSGSCRRARSPHDLSLASLLGAGALRPPPGSRPVSQPCCRPTRYEAVSFMDVNSTWRTVDRLSATACGCLG
notes: The construct codes for a 146 amino acid protein: 33 leader and tag residues plus 113 residues of mature enovin; also called immobilized enovin
